Like-named read-outs stand apart in the source and are kept apart here.
How the values were obtained:
cryo-EM structure [1] = target: the molecule itself; assay: cryo-EM structure
cryo-EM structure [2] = target: the molecule itself; assay: cryo-EM structure; remark: listed apart in the source

B1: human GPR156 EM (residues 1–346), apo (receptor)
chain: MEPEINCSELCDSFPGQELDRRPLHDLCKTTITSSHHSSKTISSLSPVLLGIVWTFLSCGLLLILFFLAFTIHCRKNRIVKMSSPNLNIVTLLGSCLTYSSAYLFGIQDVLVGSSMETLIQTRLSMLCIGTSLVFGPILGKSWRLYKVFTQRVPDKRVIIKDLQLLGLVAALLMADVILLMTWVLTDPIQCLQILSVSMTVTGKDVSCTSTSTHFCASRYSDVWIALIWGCKGLLLLYGAYLAGLTGHVSSPPVNQSLTIMVGVNLLVLAAGLLFVVTRYLHSWPNLVFGLTSGGIFVCTTTINCFIFIPQLKQWKAFEEENQTIRRMAKYFSTPNKSFHTQYGEE
B1 was tested, and the “stoichiometry N” value (cryo-EM structure [1]) was 2.

B2: human GPR156 EM (residues 1–346) in the GPR156–Gi3 complex (receptor)
chain: MEPEINCSELCDSFPGQELDRRPLHDLCKTTITSSHHSSKTISSLSPVLLGIVWTFLSCGLLLILFFLAFTIHCRKNRIVKMSSPNLNIVTLLGSCLTYSSAYLFGIQDVLVGSSMETLIQTRLSMLCIGTSLVFGPILGKSWRLYKVFTQRVPDKRVIIKDLQLLGLVAALLMADVILLMTWVLTDPIQCLQILSVSMTVTGKDVSCTSTSTHFCASRYSDVWIALIWGCKGLLLLYGAYLAGLTGHVSSPPVNQSLTIMVGVNLLVLAAGLLFVVTRYLHSWPNLVFGLTSGGIFVCTTTINCFIFIPQLKQWKAFEEENQTIRRMAKYFSTPNKSFHTQYGEE
B2 was tested, and the “stoichiometry N” value (cryo-EM structure [2]) was 2.
